Assay results taken from US20260258110A1, “VOLTAGE GATED SODIUM CHANNEL-SPECIFIC PEPTIDE APTAMERS AND USES THEREOF” (The Medical College of Wisconsin, Inc., priority 2023, published 2026).
Like-named read-outs stand apart in the source and are kept apart here. No end group written: not given here.

What was measured:
[1] = biological target: T1, hNav1.7 (Homo sapiens, UniProt Q15858); assay: Whole-cell voltage-clamp of INa1.7 in HEK1.7 cells after plasmid transfection; type: cell-based; settings: for INa1.7 in presence of NaviPA1 mutants: 3-4 days after transfection
T1 construct: the Nav1.7 antibody detected full-length Nav1.7 only in HEK1.7 cells
T1 sequence (Q15858 whole entry): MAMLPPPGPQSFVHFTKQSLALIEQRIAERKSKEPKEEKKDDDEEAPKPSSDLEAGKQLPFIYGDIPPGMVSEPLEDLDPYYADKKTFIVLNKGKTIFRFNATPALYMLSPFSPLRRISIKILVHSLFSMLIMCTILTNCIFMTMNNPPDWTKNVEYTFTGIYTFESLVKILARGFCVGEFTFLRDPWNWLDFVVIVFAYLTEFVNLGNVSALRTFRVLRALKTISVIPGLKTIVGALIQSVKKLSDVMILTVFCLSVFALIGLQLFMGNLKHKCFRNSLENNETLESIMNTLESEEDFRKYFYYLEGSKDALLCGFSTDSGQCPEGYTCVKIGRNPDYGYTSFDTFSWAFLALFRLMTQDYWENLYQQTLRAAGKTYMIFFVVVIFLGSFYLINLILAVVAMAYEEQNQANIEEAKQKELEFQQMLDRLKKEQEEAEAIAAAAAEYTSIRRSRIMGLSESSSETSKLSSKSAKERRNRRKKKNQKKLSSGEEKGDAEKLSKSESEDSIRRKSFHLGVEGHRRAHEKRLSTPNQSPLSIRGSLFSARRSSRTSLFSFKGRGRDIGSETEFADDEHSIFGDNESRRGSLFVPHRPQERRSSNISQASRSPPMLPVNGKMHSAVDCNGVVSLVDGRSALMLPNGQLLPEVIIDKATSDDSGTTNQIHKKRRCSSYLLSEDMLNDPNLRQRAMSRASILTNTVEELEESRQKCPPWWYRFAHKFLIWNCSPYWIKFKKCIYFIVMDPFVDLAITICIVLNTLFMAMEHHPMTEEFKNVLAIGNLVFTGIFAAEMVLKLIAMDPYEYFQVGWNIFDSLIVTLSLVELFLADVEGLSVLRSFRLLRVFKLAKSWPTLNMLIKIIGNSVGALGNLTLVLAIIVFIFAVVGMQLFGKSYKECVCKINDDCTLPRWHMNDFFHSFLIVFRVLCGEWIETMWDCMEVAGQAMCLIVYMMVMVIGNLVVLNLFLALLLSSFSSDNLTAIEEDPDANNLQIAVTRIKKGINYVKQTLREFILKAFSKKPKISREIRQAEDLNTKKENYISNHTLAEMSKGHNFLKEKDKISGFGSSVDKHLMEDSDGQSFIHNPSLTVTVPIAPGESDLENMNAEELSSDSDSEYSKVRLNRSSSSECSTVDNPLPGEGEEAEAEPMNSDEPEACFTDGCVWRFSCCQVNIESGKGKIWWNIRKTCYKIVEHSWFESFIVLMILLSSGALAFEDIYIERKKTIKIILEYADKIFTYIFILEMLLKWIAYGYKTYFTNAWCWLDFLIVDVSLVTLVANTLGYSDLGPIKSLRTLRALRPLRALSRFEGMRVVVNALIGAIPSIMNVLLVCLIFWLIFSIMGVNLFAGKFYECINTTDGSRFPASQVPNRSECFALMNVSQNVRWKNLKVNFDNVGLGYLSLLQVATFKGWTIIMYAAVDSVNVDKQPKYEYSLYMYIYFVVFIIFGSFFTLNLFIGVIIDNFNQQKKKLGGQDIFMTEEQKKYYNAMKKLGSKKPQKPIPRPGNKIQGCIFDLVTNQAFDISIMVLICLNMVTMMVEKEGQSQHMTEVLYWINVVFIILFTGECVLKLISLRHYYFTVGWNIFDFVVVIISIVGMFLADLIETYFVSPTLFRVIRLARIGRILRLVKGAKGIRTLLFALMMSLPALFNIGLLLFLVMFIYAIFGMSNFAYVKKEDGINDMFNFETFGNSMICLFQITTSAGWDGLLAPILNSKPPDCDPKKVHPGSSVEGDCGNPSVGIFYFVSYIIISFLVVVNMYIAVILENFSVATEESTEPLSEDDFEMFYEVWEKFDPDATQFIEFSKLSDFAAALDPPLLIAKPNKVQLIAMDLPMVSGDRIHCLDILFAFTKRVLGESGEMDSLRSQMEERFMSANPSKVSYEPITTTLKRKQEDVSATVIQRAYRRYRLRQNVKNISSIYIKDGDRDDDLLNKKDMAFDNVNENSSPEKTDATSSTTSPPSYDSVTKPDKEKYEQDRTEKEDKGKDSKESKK
Protocol: The stable expression of each construct was verified by transfection into HEK293 cells stably expressing human wild-type Nav1.7 (HEK1.7 cells), followed by immunoblots (IB). Representative tests for GFPlinker (GFP), 1.7iPAs (1, 2, 3, 4, 6) were shown (FIG. 1H, I). Initial screening experiments by whole-cell voltage-clamp of INa1.7 in HEK1.7 cells, transfected with plasmids encoding nine 1.7iPAs (1.7iPA1-9), were performed to characterize the INa1.7. The presence of 9 different 1.7iPAs in HEK1.7 cells on peak INa1.7 density (3 days after transfection) were summarized in FIG. 1F, in which the data points recorded by at least 2 replicates were combined. […] These experiments thus identified 1.7iPA1 and 1.7iPA4 (both derived from ICL1), as well as 1.7iPA6 (from ICL2), as effective iPAs (>50% INa1.7 inhibition). We next focused on the validation of INa1.7 inhibition and channel kinetics by 1.7iPA1, 4, and 6 on HEK1.7 cells in new experiments. […] The 1.7iPA1 peptide is polyampholytic, enriched with 38.6% positively charged arginine or lysine (17/44), 23% of serine (10/44), 14% acidic residues (6/44); and is highly conserved between rodents and humans (FIG. 2F).
EP recordings were performed, as we described previously with minor modifications at room temperature (22~25° C.) (10, 12), in a blind manner where the electrophysiologist was not aware of the treatment. Patch pipettes 0.9-2.5M2 resistance were formed from borosilicate glass (King Precision Glass Co., Claremont, CA) and fire polished. Recordings were made with an […] amplifier (Molecular Devices, Downingtown, PA). Signals were filtered at 5 kHz and sampled at 20 and 50 kHz (adopted from literature) (13-22) with a Digidata 1440A digitizer and pClamp10 software (Molecular Devices, San Jose, CA). Series resistance (3-5M (2) was monitored before and after the recordings, and data were discarded if the resistance changed by 20%. After achieving the whole-cell recording, capacitance (Cm) and series resistance (Rs) were compensated accordingly.
Sodium channel current (INa) recording in cultured cell lines. Whole-cell voltage-clamp to recording INa was performed in HEK1.7, HEK1.1, HEK1.3, HEK1.6, HEK1.5, HEK1.8, CHO1.8, NG108-15 cells, and F11cells in current-density (I-V) and fast-inactivation voltage protocols. External solution consists of the following (in mM): 110 NaCl, 20 tetraethylammonium-Cl, […]), 0.1 CaCl2, 5 MgCl2, 10 HEPES and 5.56 mM glucose (pH 7.4, 310-315 mosM/L). The internal pipette solution consisted of (in mM): 10 NaCl, 130 CsCl, 5 MgCl2, 5 EGTA, 2.5 Na2+ATP and 10 HEPES (pH 7.2). After formation of a tight seal (maximal leak amplitude <150 pA), membrane resistance and capacitance were determined. The voltage dependence of activation was assessed from holding potential using 50 ms pulses (test-pulse) to a range of test potentials from −100 mV to +50 mV in 5 mV or 10 mV incremental steps with an interval of 5 s. Current density was calculated by normalizing maximal peak currents with cell capacitance. The voltage dependence of steady-state fast inactivation was measured using a two-step protocol. A 500 ms pre-pulse with various potentials ranging from Vhold to +10 mV in 5 or 10 mV incremental steps was used to inactivate the channels. This pre-pulse was immediately followed by a 40 ms test-pulse at 0 mV to determine the remaining fraction of available channels. Inward current measured during the test-pulse to 0 mV was normalized to the cell's maximum test-pulse inward current. To determine the conductance-voltage (I-V) relationships of voltage-dependent activation, the peak current densities during each voltage command step were fitted to a smooth curve with a Boltzmann equation: I=Gmax (V-Erev)/[(1+exp [(V−V50)/k))], which provided the maximum conductance (Gmax). Normalized activation curves were fitted with a Boltzmann equation G/Gmax=1/(1+exp (V50-Vm)/k), where G was calculated as follows: G=I/(Vm−Erev). […]

[2] = tested on: BK potassium channels; assay: BK IKv recording in NG108-15 cells; type: cell-based
[3] = biological target: T2, human Nav1.8 (Homo sapiens, UniProt Q9Y5Y9, DEL1030-1030/M1713V); assay: Whole-cell voltage-clamp of INa1.8 in HEK1.8 stable cells; type: cell-based; set-up: sensitivity of INa1.8 to channel blocker: dose or concentration left out as unconfirmed
T2 construct: cell line made in house
T2 sequence (Q9Y5Y9 with tags, fused parts or gaps DEL1030-1030/M1713V): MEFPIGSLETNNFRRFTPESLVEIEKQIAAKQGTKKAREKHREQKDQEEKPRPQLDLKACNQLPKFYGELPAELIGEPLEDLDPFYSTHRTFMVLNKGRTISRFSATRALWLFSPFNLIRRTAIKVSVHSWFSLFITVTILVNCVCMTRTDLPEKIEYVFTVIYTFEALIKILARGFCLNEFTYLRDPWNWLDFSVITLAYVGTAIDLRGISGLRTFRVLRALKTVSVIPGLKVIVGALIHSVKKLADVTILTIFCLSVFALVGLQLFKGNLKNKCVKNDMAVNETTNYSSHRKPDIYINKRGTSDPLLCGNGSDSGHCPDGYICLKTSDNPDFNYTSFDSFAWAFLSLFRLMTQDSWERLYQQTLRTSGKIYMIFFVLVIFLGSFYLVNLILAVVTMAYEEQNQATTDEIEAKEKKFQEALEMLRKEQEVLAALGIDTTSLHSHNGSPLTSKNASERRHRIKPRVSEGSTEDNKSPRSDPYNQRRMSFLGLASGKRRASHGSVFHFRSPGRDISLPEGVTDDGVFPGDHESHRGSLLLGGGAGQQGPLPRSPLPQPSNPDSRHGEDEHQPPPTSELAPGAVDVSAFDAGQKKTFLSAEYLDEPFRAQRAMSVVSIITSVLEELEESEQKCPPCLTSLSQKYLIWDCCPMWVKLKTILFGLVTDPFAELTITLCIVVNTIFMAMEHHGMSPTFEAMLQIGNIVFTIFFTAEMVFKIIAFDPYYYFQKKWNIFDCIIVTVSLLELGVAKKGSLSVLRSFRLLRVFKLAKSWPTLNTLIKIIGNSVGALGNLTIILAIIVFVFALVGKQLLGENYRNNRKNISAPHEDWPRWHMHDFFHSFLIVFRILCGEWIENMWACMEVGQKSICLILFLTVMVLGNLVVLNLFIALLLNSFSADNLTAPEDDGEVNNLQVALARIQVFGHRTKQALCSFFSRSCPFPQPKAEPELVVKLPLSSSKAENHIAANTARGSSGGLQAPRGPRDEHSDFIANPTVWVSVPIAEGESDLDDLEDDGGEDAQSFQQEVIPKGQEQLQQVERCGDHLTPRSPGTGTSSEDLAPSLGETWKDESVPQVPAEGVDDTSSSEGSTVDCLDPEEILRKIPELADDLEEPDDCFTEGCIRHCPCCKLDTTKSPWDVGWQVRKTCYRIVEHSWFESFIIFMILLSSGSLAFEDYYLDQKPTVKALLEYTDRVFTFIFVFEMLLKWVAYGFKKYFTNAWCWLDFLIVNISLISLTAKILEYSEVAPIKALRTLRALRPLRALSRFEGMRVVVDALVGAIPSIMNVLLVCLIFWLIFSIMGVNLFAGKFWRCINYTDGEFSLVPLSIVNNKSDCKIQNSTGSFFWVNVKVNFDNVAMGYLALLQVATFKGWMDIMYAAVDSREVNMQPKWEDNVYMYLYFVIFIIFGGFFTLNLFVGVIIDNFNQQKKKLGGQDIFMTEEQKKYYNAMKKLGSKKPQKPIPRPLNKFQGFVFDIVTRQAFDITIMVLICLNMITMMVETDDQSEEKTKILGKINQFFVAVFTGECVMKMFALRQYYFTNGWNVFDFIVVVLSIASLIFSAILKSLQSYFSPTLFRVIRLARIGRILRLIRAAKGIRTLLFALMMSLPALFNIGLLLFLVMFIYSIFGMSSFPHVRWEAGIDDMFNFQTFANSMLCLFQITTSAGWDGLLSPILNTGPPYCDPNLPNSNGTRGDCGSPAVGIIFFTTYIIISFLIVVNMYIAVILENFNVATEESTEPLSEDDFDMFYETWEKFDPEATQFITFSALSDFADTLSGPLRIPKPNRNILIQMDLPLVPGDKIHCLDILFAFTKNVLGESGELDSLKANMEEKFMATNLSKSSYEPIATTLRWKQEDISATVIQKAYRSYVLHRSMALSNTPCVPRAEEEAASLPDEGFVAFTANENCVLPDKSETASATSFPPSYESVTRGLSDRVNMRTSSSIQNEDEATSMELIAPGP

[4] = tested on: mechanical hypersensitivity; settings: after i.p. injection; cited from earlier work
[5] = tested on: DRG neurons; assay: Whole-cell current-clamp of dissociated DRG neurons from TNI rats (excitability); type: cell-based, rat; settings: transduced small/medium-sized DRG neurons, male TNI rats, compared to sham
Excerpt: Increased excitability of nociceptive PSNs is a fundamental process underlying neuropathic pain (46). We therefore examined whether AAV6-NaviPA1 treatment reverses the enhanced neuronal excitability of nociceptive PSNs following TNI (12, 47), using the whole-cell current-clamp AP recording of DRG dissociated neurons from rats after the treatment protocol shown in FIG. 7B. […] We therefore recorded from randomly chosen small/medium-sized neurons (<35 μm in diameter) (51) in the cultures from dissociated L4 and L5 DRG. Transduced neurons were identified by GFP fluorescence, and excitability was evaluated by measuring rheobase and repetitive action potential (AP) firing during 250 ms current pulses stepping from 100 pA and 280 pA current injection. […]
Whole-cell current-clamp recording on dissociated DRG neurons (male rats). […] The membrane input resistance was calculated by dividing the ending amplitude of steady-state hyperpolarizing voltage deflection by the injected current (27). […] The baseline potentials were recorded for 20 ms before the stimulus pulses were injected into the neurons. […] AP frequency was determined by quantifying the number of APs elicited in response to depolarizing current injections (250 ms).

[6] = biological target: T3, Nav1.7 (Homo sapiens, UniProt Q15858); assay: Immunoblot of membrane Nav1.7 in fractionated HEK1.7 cells (intracellular trafficking); type: cell-based; settings: fractionated HEK1.7 cells after transfection
T3 construct: the Nav1.7 antibody detected full-length Nav1.7 only in HEK1.7 cells
T3 sequence (Q15858 whole entry): as the sequence (Q15858 whole entry) above
Protocol: Since Nav1.7 is an integral membrane protein, we therefore tested whether NaviPA1 expression in the HEK1.7 cells would interrupt Nav1.7 intracellular trafficking. […] Studies have shown that IDRs in the membrane proteins engage in interactions with the membrane (33). To test whether NaviPA1 interference of Nav1.7 might be via […] of Nav1.7, GFP affinity pull-down by ChromoTek GFP-Trap (ChromoTek, Rosemont, IL) was performed after transfection of GFP-NaviPA1 in HEK1.7 cells using GFPlinker (GFP) and GFP-1.7iPA2 (FIG. 1) as the controls. Cell lysates were prepared by a lysis buffer containing 0.5% Nonidet p40, a ‘non-denaturing’ mild lysis detergent, for preventing interaction breaking and maximizing the retention of NaviPA1-protein interactions (34). […] It has been reported that polybasic IDRs in transmembrane proteins preferably bind to negatively charged lipids (36, 37). We reasoned that NaviPA1 might be able to bind phosphoinositides, and this hypothesis was tested by using phosphatidylinositol phosphate (PIP) strips (Echelon PIP Strip, Salt Lake City, UT). […]
NaviPA1 is a polybasic arginine/lysine and serine-enriched peptide. […] However, the full-length Nav1.7 membrane integration, which is determined by its TM domains but not intracellular sequences, was unaffected in the presence of NaviPA1 (FIG. 6F). […]

[7] = HEK1.7 cells, initial screening

1.7/1.8iPA: disordered polyacidic 38mer from Nav1.7 intracellular loop 2 with AnkG and Pdzd2-I binding domains; dual Nav1.7/1.8 inhibitory peptide aptamer (PGESDLEIMNTEELSSDSDSDYSKEKRNRSSSSECSTV)
effect on INa1.7 ([1]; preliminary data, 38mer expressed in HEK1.7 cells): inhibits | Nav1.7 voltage-gated activation ([1]; preliminary data, HEK1.7 cells): possibly desensitized | effect on BK IKv [2]: No change | effect on INa1.8 ([3]; preliminary data, expression in HEK1.8 cells): suppresses

COc1cc(NC(=O)c2ccc(-c3ccc(Cl)cc3)o2)cc(OC)c1 [A803467, reference compound]
INa1.8 inhibition ([3]; 100 nM, HEK1.8 cells): 85% | sensitivity of INa1.8 to channel blocker ([3]; HEK1.8 cells): sensitive

NC1=N[C@H](O)[C@H]2[C@H]3O[C@]4(O)O[C@@H]([C@@H](O)[C@@]2(N1)[C@@H]4O)[C@]3(O)CO [TTX, tetrodotoxin, reference compound]
Peak INa1.7 [1]: 2 ± 1 (10) pA/pF | sensitivity of INa1.8 to channel blocker [3]: resistant

NCC1(CC(=O)O)CCCCC1 [gabapentin, Gabapentin]
time of maximal reduction of mechanical hypersensitivity [4]: 30 to 60 min

Nav1.7iPA3: inert peptide from N-terminus of Nav1.7 (SEQ ID NO: 3), used as control NP (SEEKAKEHKDEKKDDEEEGPKPSSDLEAGKQ)
Activation V50 [1, 7]: 25.4 ± 1.2 (22) mV | Inactivation V50 [1, 7]: 61.6 ± 2 (18) mV | Peak INa1.7 ([1]; HEK1.7 cells, initial screening after plasmid transfection, value ± spread, (n) in cell): 118 ± 1 (22) pA/pF | effect on peak INa1.7 density ([1]; compared to sham transfected HEK1.7 cells): no significant effects | rheobase and frequency of evoked APs in neurons from TNI rats [5]: no significant effects

NaviPA1mt1: GFP-fused NaviPA1 mutant, alanine substitution for ten serine residues (AAKAAKERRNRRKKKKQKMAAGEEKGDDEKLAKAGAEEAIRKKA; also: GFP fusion)
INa1.7 in presence of NaviPA1 mutants ([1]; HEK1.7 cells): comparable to naïve and GFPNP transfected HEK1.7 cells | effect on INa1.8 ([3]; HEK1.8 cells): did not change | membrane Nav1.7 protein / Nav1.7 membrane integration [6]: not to impede

NaviPA1mt2: GFP-fused NaviPA1 mutant, alanine substitution for nine arginine or lysine within predicted polybasic NLS (SSKSAKEAANAAAAAAQAMSSGEEKGDDEKLSKSGSEESIRKKS; also: GFP fusion)
INa1.7 in presence of NaviPA1 mutants ([1]; HEK1.7 cells): comparable to naïve and GFPNP transfected HEK1.7 cells | effect on INa1.8 ([3]; HEK1.8 cells): did not change | membrane Nav1.7 protein / Nav1.7 membrane integration [6]: not to impede
